This assay has as its target Rac1 (human, UniProt P63000 1-189). As to the kind of experiment: co-immunoprecipitation with anti-FGD5 antibody from lysates of FGD5 overexpressing HUVECs, western blot. The method, then: GTP-RhoA, Rac1, and cdc42 activation levels were measured using the G-lisa detection system (Tebu-Bio, The Netherlands). For FGD5-protein complex co-immunoprecipitation, magnetic beads (Dynabeads, Invitrogen, The Netherlands) were coated and cross-linked with 2.5 μg anti-FGD5 antibody (Bioscience, The Netherlands) before immunoprecipitation overnight at 4° C. with protein cell lysates of transfected HUVECs (50 μg total protein of a volume of 100 μl incubation buffer). Beads were washed and the protein samples were eluted with eluation buffer (Invitrogen, The Netherlands) before analysis by western blot.
A general note: In western blotting, separated proteins are transferred to a membrane and probed.

B1: FYVE, RhoGEF and PH domain-containing 5 (FGD5) (enzyme)
chain: MFRGPKPPIAPKPRLTAPNEWRASVYLNDSLNKCSNGRLPCVDRGLDEGPRSIPKCSESETDEDYIVVPRVPLREDEPKDEGSVGNKALVSPESSAEEEEEREEGGEACGLEGTGAGEDSVAPAAPGAGALSREGEEGTDLALEDEGEGCADEPGTLEQVSRSEEEEKLVQPHRECSLEDSGPWAGEGVFQSDLLLPHIHGEDQEPPDTPGEAEEDDEEGCASTDPAGADEGSGPDRPTEDMGQDAEDTSEEPPEKEELAGVQEAETATDCPEVLEEGCEEATGVTGGEQVDLSEPPDHEKKTNQEVAAATLEDHAQDESAEESCQIVPFENDCMEDFVTSLTGSPYEFFPTESTSFCSESCSPLSESAKGLESEQAPKLGLRAEENPMVGALCGQCGSLQGGAAEGPAAPDVVVVLEEEALDDALANPYVMGVGLPGQAAPGEGGQAASDALGGYGSKEELNCEAEGGLVPADRKNTSTRVRPHSGKVAGYVPETVPEETGPEAGSSAPGIGGAAEEVGKTLLSLEGKPLEASRALPAKPRAFTLYPRSFSVEGREIPVSVYQEPEGSGLDDHRIKRKEDNLSLSCVIGSSGSFSQRNHLPSSGTSTPSSMVDIPPPFDLACITKKPITKSSPSLLIESDSPDKYKKKKSSFKRFLALTFKKKTENKLHVDVNVSSSRSSSESSYHGPSRILEVDRRSLSNSPQLKSRTGKLRASESPSSLIFYRDGKRKGVPFSRTVSRVESFEDRSRPPFLPLPLTKPRSISFPSADTSDYENIPAMNSDYENIQIPPRRPARAGAFTKLFEDQSRALSTANENDGYVDMSSFNAFESKQQSADQDAESAYTEPYKVCPISSAAPKEDLTSDEEQRSSEEEDSASRDPSVTHKVEGQSRALVIAQELLSSEKAYVEMLQHLNLDFHGAVMRALDDMDHEGRDTLAREELRQGLSELPAIHDLHQGILEELEERLSNWESQQKVADVFLAREQGFDHHATHILQFDRYLGLLSENCLHSPRLAAAVREFEQSVQGGSQTAKHRLLRVVQRLFQYQVLLTDYLNNLCPDSAEYDNTQGALSLISKVTDRANDSMEQGENLQKLVHIEHSVRGQGDLLQPGREFLKEGTLMKVTGKNRRPRHLFLMNDVLLYTYPQKDGKYRLKNTLAVANMKVSRPVMEKVPYALKIETSESCLMLSASSCAERDEWYGCLSRALPEDYKAQALAAFHHSVEIRERLGVSLGERPPTLVPVTHVMMCMNCGCDFSLTLRRHHCHACGKIVCRNCSRNKYPLKYLKDRMAKVCDGCFGELKKRGRAVPGLMRERPVSMSFPLSSPRFSGSAFSSVFQSINPSTFKKQKKVPSALTEVAASGEGSAISGYLSRCKRGKRHWKKLWFVIKGKVLYTYMASEDKVALESMPLLGFTIAPEKEEGSSEVGPIFHLYHKKTLFYSFKAEDTNSAQRWIEAMEDASVL
notes: Guanine-nucleotide exchange factor; The co-IP used lysates of HUVECs transfected with adenovirus encoding human FGD5 cDNA; also called Ad-FGD5 transgene product
As to B1, the binding result is on record as “no binding”.

(Values after patent publication US20120277144A1 (published 2012).)
